According to publication PMC3777628 (Virology, 2013):

B1: MBP-Agno (17–71) (domain or fragment)
chain: TWSGTKKRAQRILIFLLEFLLDFCTGEDSVDGKKRQRHSGLTEQTYSALPEPKAT
B2: MBP-Agno Ala(34–36) (natural protein)
chain: MVLRQLSRKASVKVSKTWSGTKKRAQRILIFLLAAALDFCTGEDSVDGKKRQRHSGLTEQTYSALPEPKAT

Molecular target: the molecule itself
Assay: SDS-PAGE of SDS-resistant dimers and oligomers

Q: Does B1 bind?
A: Result: binds

Q: Does AQRILIFLLEFLLDFCTGEDSVDGKKRQRHSGLTEQTYSALPEPKAT (domain or fragment) [MBP-Agno (25–71)] bind?
A: Result: binds

Q: Does B2 bind?
A: Result: binds

Q: Does ILIFLLEFLLDFCTGEDSVDGKKRQRHSGLTEQTYSALPEPKAT (domain or fragment) [MBP-Agno (28–71)] bind?
A: Result: binds
